Laboratory results taken from PMC8871863, “Initiator-Directed Transcription: Fission Yeast Nmtl Initiator Directs Preinitiation Complex Formation and Transcriptional Initiation” (Genes, 2022).

Target: T1, TFIIB (fission yeast (S. pombe), UniProt O13749 1-340)
T1 construct: transcription initiation factor TFIIB of fission yeast, recombinant; also called recombinant fission yeast TFIIB
T1 sequence (looked up): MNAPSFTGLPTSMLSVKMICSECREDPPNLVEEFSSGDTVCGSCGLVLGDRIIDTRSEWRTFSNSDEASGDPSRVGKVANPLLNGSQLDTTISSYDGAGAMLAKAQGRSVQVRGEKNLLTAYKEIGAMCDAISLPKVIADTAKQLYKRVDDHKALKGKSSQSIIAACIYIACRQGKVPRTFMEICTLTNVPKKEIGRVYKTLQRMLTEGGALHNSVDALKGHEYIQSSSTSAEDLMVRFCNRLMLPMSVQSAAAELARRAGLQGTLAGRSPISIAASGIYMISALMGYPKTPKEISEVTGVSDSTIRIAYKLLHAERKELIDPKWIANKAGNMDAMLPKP
Assay: native gel or EMSA; purified factors incubated 5 min at 25 °C in 20 mM HEPES pH 7.9, 50 mM KCl, 5 mM MgCl2, 0.1 mM EDTA, 5% glycerol, 0.5% PEG 8000, 2 mM DTT, then 15 min at 30 °C with 32P-labelled nmt1 Inr DNA probe; 5% acrylamide gel at 4 °C; all complexes are formed on the DNA probe
Conditions: both partners purified

B1: TBP (natural protein, fission yeast (S. pombe), UniProt P17871 1-231, looked up)
chain: MDFALPTTASQASAFMNNSSLTFPVLPNANNEATNETADSGDAEVSKNEGVSGIVPTLQNIVATVNLDCRLDLKTIALHARNAEYNPKRFAAVIMRIREPKSTALIFASGKMVVLGGKSEDDSKLASRKYARIIQKLGFNAKFTDFKIQNIVGSCDVKFPIRLEGLAYSHGTFSSYEPELFPGLIYRMVKPKVVLLIFVSGKIVLTGAKVREEIYQAFEAIYPVLSEFRKH
notes: also called fission yeast TBP
B1: binds.
